According to article doi:10.1101/2021.08.20.457137 (bioRxiv, 2021):

Assays:
[1] = target: lysozyme (Gallus gallus, UniProt P00698); test: SEC
[2] = target: VcNorM (UniProt Q9KRU4); test: SEC
[3] = target: Lyso-Nb_4 S112A (alpaca scaffold, camel CDRs); test: SPR
[4] = target: Lyso-Nb_4 L11A (alpaca scaffold, camel CDRs); test: SPR
[5] = target: Lyso-Nb_4 W103A (alpaca scaffold, camel CDRs); test: SPR
[6] = target: Lyso-Nb_4 P41A (alpaca scaffold, camel CDRs); test: SPR
[7] = target: Lyso-Nb_4 Y91A (alpaca scaffold, camel CDRs); test: SPR
[8] = target: TC-Nb4 (alpaca); test: SPR
[9] = target: Lyso-Nb_4 R45A (alpaca scaffold, camel CDRs); test: SPR
[10] = target: Lyso-Nb_4 K43A (alpaca scaffold, camel CDRs); test: SPR
[11] = target: Lyso-Nb_4 V89A (alpaca scaffold, camel CDRs); test: SPR

B1: Lyso-Nb_4 (VHH)
VHH: QRQLVESGGGLVQPGGSLRLSCAASGSTDSIEYMTWFRQAPGKEREGVAALYTHTGNTYYADSVKGRFIISRDKAKNMVYLQMNSLEPEDTAVYYCGATRKYVPVRFALDQSSYDYWGKGTPVTVSS
binding result [1]: binds

B2: NorM-Nb17_4 (VHH)
VHH: QRQLVESGGGLVQPGGSLRLSCAASGIIFKINDMGWFRQAPGKEREGVAGITSGGRTNYADSVKGRFIISRDNVKNTVYLQMNSLEPEDTAVYYCKSDGLISYAASQLSTYWGKGTPVTVSS
binding result [2]: binds

B3: NabFab (Fab, V domains shown)
VH: EVQLVESGGGLVQPGGSLRLSCAASGFNFSYYSIHWVRQAPGKGLEWVAYISSSSSYTSYADSVKGRFTISADTSKNTAYLQMNSLRAEDTAVYYCARGYQYWQYHASWYWNGGLDYWGQGTLVTVSS
VL: DIQMTQSPSSLSASVGDRVTITCRASQSVSSAVAWYQQKPGKAPKLLIYSASSLYSGVPSRFSGSRSGTDFTLTISSLQPEDFATYYCQQSSSSLITFGQGTKVEIK
fold reduction of affinity against Lyso-Nb 4 [3]: < 5 fold
fold reduction of affinity against Lyso-Nb 4 [4]: < 5 fold
fold reduction of affinity against Lyso-Nb 4 [5]: < 5 fold
fold reduction of affinity against Lyso-Nb 4 [6]: 400 fold
fold higher KD against Lyso-Nb 4 [7]: > 25 fold
Kd [8]: 0.86 nM
fold higher KD against Lyso-Nb 4 [9]: > 40 fold
fold reduction of affinity against Lyso-Nb 4 [10]: < 5 fold
fold reduction of affinity against Lyso-Nb 4 [11]: 600 fold
